To fix the notation:
B1: wild type FtsZ (Bacillus subtilis) [B. subtilis] / itself (parent)
chain: MLEFETNIDGLASIKVIGVGGGGNNAVNRMIENEVQGVEYIAVNTDAQALNLSKAEVKMQIGAKLTRGLGAGANPEVGKKAAEESKEQIEEALKGADMVFVTAGMGGGTGTGAAPVIAQIAKDLGALTVGVVTRPFTFEGRKRQLQAAGGISAMKEAVDTLIVIPNDRILEIVDKNTPMLEAFREADNVLRQGVQGISDLIATPGLINLDFADVKTIMSNKGSALMGIGIATGENRAAEAAKKAISSPLLEAAIDGAQGVLMNITGGTNLSLYEVQEAADIVASASDQDVNMIFGSVINENLKDEIVVTVIATGFIEQEKDVTKPQRPSLNQSIKTHNQSVPKREPKREEPQQQNTVSRHTSQPADDTLDIPTFLRNRNKRG

In this test the parent is B1. The experiment in a line: sedimentation assay (ultracentrifugation). The note with it: with itself, 10 µM FtsZ, 50 mM Hepes/NaOH, 50 mM KCl, 10 mM MgCl2, pH 7.5, 30°C, 5 min, read off a plot.

As for MLEFETNIDGLASIKVIGVGGGGNNAVNRMIENEVQGVEYIAVNTDAQALNLSKAEVKMQIGAKLTRGLGAGANPEVGKKAAEESKEQIEEALKGADMVFVTAGMGGGTGTGAAPVIAQIAKDLGALTVGVVTRPFTFEGRKRQLQAAGGISAMKEAVDTLIVIPNDRILEIVDKNTPMLEAFREADNVLRQGVQGISDLIATPGLINLDFADVKTIMSNKGSALMGIGIATGENRAAEAAKKAISSPLLEAAIDGAQGVLMNITGGTNLSLYEVQEAADIVASTSDQDVNMIFGSVINENLKDEIVVTVIATGFIEQEKDVTKPQRPSLNQSIKTHNQSVPKREPKREEPQQQNTVSRHTSQPADDTLDIPTFLRNRNKRG [chain 1 A285T], the response (% FtsZ in pellet) is, setting by setting: (1 mM GDP (control)) 28; (1 mM GTP) 25.

With MLEFETNIDGLASIKVIGVGGGGNNAVNRMIENEVQGVEYIAVNTDAQALNLSKAEVKMQIGAKLTRGLGAGANPEVGKKAAEESKEQIEEALKGADMVFVTAGMGGGTGTGAAPVIAQIAKDLGALTVGVVTRPFTFEGRKRQLQAAGGISAMKEAVDTLIVIPNDRILEIVDKNTPMLEAFREADNVLRQGVQGISDLIATPGLINLDFADVKTIMSNKGSALMGIGIATGENRAAEAAKKAISSPLLEAAIDGAQGVLMNITGGTNLSLYEVQEAADIVASASDQDVNMIFGSVINENPKDEIVVTVIATGFIEQEKDVTKPQRPSLNQSIKTHNQSVPKREPKREEPQRQNTVSRHTSQPADDTLDIPTFLRNRNKRG [chain 1 L302P Q353R], the response (% FtsZ in pellet) by setting is: (1 mM GDP (control)) 18; (1 mM GTP) 29.

With MLEFETNIDGLASIKVIGVGGGGNNAVNRMIENEVQGVEYIAVNTDAQALNLSKAEVKMQIGAKLTRGLGAGANPEVGKKAAEESKEQIEEALKGADMVFVTAGMGGGTGTGAAPVIAQIAKDLGALTVGVVTRPFTFEGRKRQLQAAGGISAMKEAVDTLIVIPNDRILEIVDKNTPMLEAFREADNVLRQGVQGISDLIATPGLINLDFADVKTIMLNKGSALMGIGIATGENRAAEAAKKAISSPLLEAAIDGAQGVLMNITGGTNLSLYEVQEAADIVASASDQDVNMIFGSVINENLKDEIVVTVIATGFIEQEKDVTKPQRPSLNQSIKTHNQSVPKREPKREEPQQQNTVSRHTSQPADDTLDIPTFLRNRNKRG [chain 1 S219L], the response (% FtsZ in pellet) reads like this: (1 mM GDP (control)) 16; (1 mM GTP) 51.

Source of the values: article PMC2920321, “Characterization of ftsZ Mutations that Render Bacillus subtilis Resistant to MinC” (PLoS ONE, 2010).
